Reference: PMC8204342, “Dual arginine recognition of LRRK2 phosphorylated Rab GTPases” (Biophysical Journal, 2021)
Substitutions are numbered along the chain they refer to. Numbers in names are those of the source.

T1: Full-length RILPL2 as used in calorimetry (human, UniProt Q969X0 1-211)
T1 construct: also called RL2-FL
T1 sequence (looked up): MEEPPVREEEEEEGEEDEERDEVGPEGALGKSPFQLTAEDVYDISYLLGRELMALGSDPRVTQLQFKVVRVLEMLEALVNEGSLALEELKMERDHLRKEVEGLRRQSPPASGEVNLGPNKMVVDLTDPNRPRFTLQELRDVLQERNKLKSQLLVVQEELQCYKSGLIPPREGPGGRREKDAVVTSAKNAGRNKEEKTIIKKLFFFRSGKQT

B1: Rab8a(Q67L + T72E), phosphomimetic mutant, residues 1-181 (natural protein, human, UniProt P61006 1-181, looked up)
chain: MAKTYDYLFKLLLIGDSGVGKTCVLFRFSEDAFNSTFISTIGIDFKIRTIELDGKRIKLQIWDTAGLERFREITTAYYRGAMGIMLVYDITNEKSFDNIRNWIRNIEEHASADVEKMILGNKCDVNDKRQVSKERGEKLALDYGIKFMETSAKANINVENAFFTLARDIKAKMDKKLEGNS
notes: Rab8a, human, residues 1-181, Q67L + T72E; Tag removed with thrombin; also called Rab8^TE; Rab8TE; source: E. coli, purified (Ni2+-agarose, Superdex 75); not shown: His6, N-terminal, cleaved
B2: RILPL2 extended Rab-binding domain, residues 117-165, tag cleaved (domain or fragment, human, UniProt Q969X0 117-165, looked up)
chain: GPNKMVVDLTDPNRPRFTLQELRDVLQERNKLKSQLLVVQEELQCYKSG
notes: Parallel coiled-coil dimer in the crystal; source: E. coli BL21(DE3), purified (Ni2+-agarose, TEV cleavage, MonoS); not shown: His6, N-terminal, cleaved; MBP, N-terminal, cleaved
B3: pRab8a(Q67L), human Rab8a residues 1-181 phosphorylated at T72, GTP-bound (natural protein, UniProt P61006 1-181, looked up)
chain: B1 chain with E72T
modifications: phosphothreonine at 72 (pT72)
notes: Tag removed with thrombin (pET28a, NdeI/BamHI); also called pRab8(Q67L); phospho-Rab8a; source: E. coli, purified (Ni2+-agarose, Superdex 75), phosphorylated in vitro by MST3 kinase, separated on MonoS; not shown: His6, N-terminal, cleaved
B4: His6-RILPL2 129-165 synthetic peptide (minimal Rab-binding domain) (peptide, UniProt Q969X0 129-165, looked up)
chain: NRPRFTLQELRDVLQERNKLKSQLLVVQEELQCYKSG
notes: source: synthetic peptide (GenScript); not shown: His6, N-terminal, kept

Columns and labels:
[1] = target: B4; experiment: ITC; Rab8^TE/pRab8a (400-600 uM) injected into RILPL2 (40-60 uM); 20 mM Tris-HCl, 150 mM NaCl, 5 mM MgCl2, 1 mM DTT, pH 7.5; triplicate; conditions: both partners purified
[2] = target: B3; experiment: as above; conditions: both partners purified
[3] = target: the molecule itself; experiment: crystal structure; pRab8(Q67L):RL2^117, 1:1 molar ratio, 5 mg/mL; 150 mM DL-malic acid, 20% PEG3350; 1.9 A
[4] = target: B2; experiment: ITC; Rab8^TE/pRab8a (400-600 uM) injected into RILPL2 (40-60 uM); 20 mM Tris-HCl, 150 mM NaCl, 5 mM MgCl2, 1 mM DTT, pH 7.5; triplicate; conditions: both partners purified
[5] = target: T1, Full-length RILPL2 as used in …; experiment: as above; conditions: both partners purified
[6] = target: B1; experiment: as above; conditions: both partners purified
[7] = target: the molecule itself; experiment: crystal structure; Rab8^TE:RL2^129, 1:2 molar ratio protein/peptide, 12 mg/mL; 100 mM HEPES pH 7, 10% PEG 4000, 10% 2-propanol; 1.7 A

Binder: B1
dH [1]: -2.7 kcal/mol
stoichiometry N [1]: 1.03

Binder: B2
Kd [2]: 540 nM
binding result [3]: binds

Binder: B3
dH [4]: -7.4 kcal/mol
stoichiometry N [4]: 1.1
Kd [5]: 1400 nM
dH [5]: -1.4 kcal/mol
stoichiometry N [5]: 1.04
dH [1]: -5.1 kcal/mol
stoichiometry N [1]: 0.92

Binder: B4
Kd [6]: 3400 nM
Kd [2]: 3300 nM
binding result [7]: binds
